B1: CPEB3 Ribozyme (parent)
chain: GGGGGCCACAGCAGAAGCGUUCACGUCGCGGCCCCUGUCAGAUUCUGGUGAAUCUGCGAAUUCUGCUGU

Variants of: B1
Assay: self-cleavage, relative activity (ratio to wild type); higher = more cleavage; co-transcriptional

Variant	self-cleavage
U21C C24U	0.429
U21C C24G	0.223
U21G G28U	0.0808
U21G G41A	0.388
U21G G41U	0.373
U21G G41C	0.276
U21C A40G	0.719
U21C A40C	0.372
U21C A40U	0.642
U21C G30C	0.235
U21C G30A	0.522
U21C G30U	0.268
U20G G50A	0.206
U20G G50C	0.246
U21G C34A	0.218
U21G A60G	0.251
U21G A60U	0.295
U20G G56U	0.199
U20G G56C	0.104
U20G G56A	0.191
U21A C35U	0.869
U21A C35A	0.323
U21A U36A	0.253
U21A U36C	0.693

Variant	self-cleavage
U21A U36G	0.272
U21C C22A	0.24
U20G G68A	0.235
U20G G68C	0.275
U21G C39G	0.865
U20G C66U	0.216
U21C G41C	0.538
U21C G41U	0.73
U21C G41A	0.677
U20G U67G	0.152
U21A A51U	0.952
U21A A51C	0.953
U21A A51G	1.01
U21G A51U	0.497
U21G A51G	0.54
U21G A51C	0.509
U21C U26C	0.805
U21C U26G	0.459
U21C C66G	0.744
U21C C66U	0.887
U21A G58A	0.898
U20G C54A	0.203
U20G C54G	0.118
U20G C54U	0.196

Variant	self-cleavage
U21A C63A	0.795
U21A C63G	0.727
U21A C63U	0.921
U21C A23U	0.803
U21C A23C	0.608
U21A C24G	0.214
U21A C24A	0.541
U21A U43A	0.906
U21A U43G	0.833
U21A U53A	0.936
U21A U53G	0.863
U21A U53C	0.927
U20G G41C	0.0984
U20G G41U	0.194
U20G G41A	0.127
U21C G58A	0.673
U21C G58U	0.952
U21C G58C	0.826
U20G U64C	0.189
U21C G37C	0.23
U21C U49C	0.868
U21C U49G	0.927
U21C U49A	0.847
U21G C22G	0.227

Variant	self-cleavage
U21G C22U	0.181
U21G C22A	0.2
U21C C29G	0.247
U21C C29U	0.217
U21A U44A	0.901
U21A U44C	0.817
U21A U44G	0.952
U20G U46A	0.164
U20G U46C	0.164
U21G C32U	0.609
U21G C32G	0.189
U21G C32A	0.246
U21A C32G	0.504
U21C G65A	0.671
U21C G65C	0.393
U21C G65U	0.488
U21A U26A	0.796
U21A U26C	0.985
U21A U26G	0.869
U21C G48U	0.901
U21C G48C	0.967
U21A A42G	0.858
U21A A42C	0.902
U20G G30A	0.126

Variant	self-cleavage
U21C A59U	0.581
U21C A59G	0.928
U21A U69G	1.06
U21A U69C	1.06
U21A U69A	1.01
U21A C29U	0.413
U21A C29G	0.445
U21A A59G	1
U21A A59C	0.681
U21A A40C	0.651
U21A A40G	0.97
U21A A40U	0.896
U21G C24A	0.106
U21G C24U	0.103
U21A A60G	0.879
U21A A60U	0.586
U21A A60C	0.29
U21A A23U	0.962
U21A A23C	0.969
U21A A23G	0.943
U21C U53A	0.765
U21C U53C	0.726
U21G C54G	0.423
U21G C54U	0.591

Variant	self-cleavage
U21C C63A	0.47
U21C C63U	0.804
U21C C63G	0.635
U20G U44G	0.168
U21C C34U	0.898
U21C C34A	0.303
U21C C34G	0.328
U21C C45U	0.88
U21C C45A	0.87
U21C G31U	0.395
U21G G37U	0.196
U21G G37C	0.18
U21G G37A	0.193
U20G G58U	0.213
U20G G58A	0.251
U20G U62A	0.183
U20G U62G	0.292
U20G U55G	0.106
U20G U55A	0.139
U20G U55C	0.148
U20G G48A	0.127
U20G G48U	0.141
U21C C33U	0.919
U21A U49C	0.972

Variant	self-cleavage
U21A U49G	0.95
U21A U49A	0.96
U21A C39G	0.981
U21A C39U	0.928
U21A C22G	0.0886
U21A C22A	0.132
U21A C54U	0.673
U21A C54A	0.872
U21A C54G	0.936
U21A G37U	0.356
U21A G47C	0.988
U21A G47A	0.969
U21A G47U	0.992
U21G A40G	0.463
U21G A40U	0.317
U21G C29G	0.158
U21G C29U	0.166
U21C C39A	0.498
U21C C39U	0.842
U20G G28C	0.145
U20G G28A	0.186
U20G C63G	0.21
U20G C63U	0.246
U21G C66A	0.263

Variant	self-cleavage
U21G C66U	0.529
U21G C66G	0.219
U21C C57U	0.379
U21C C57A	0.252
U21C U46A	0.88
U21C U46G	0.991
U21A G31A	0.803
U21A G31U	0.595
U21A U38A	0.276
U21A U38C	0.373
U21A U38G	0.24
U21C C54G	0.688
U21C C54A	0.769
U21C C54U	0.883
U21A G50C	0.924
U21A G50A	0.989
U21A A52G	1.01
U21A A52U	0.935
U21A A52C	1.03
U21C C35G	0.206
U21C C35U	0.716
U20G U69G	0.322
U20G U69C	0.281
U21G A59C	0.223

Variant	self-cleavage
U21G C63A	0.245
U21C G50C	0.849
U21C G50A	0.949
U21C G50U	0.878
U21A U64A	0.91
U21A U64C	0.874
U21A G48U	0.978
U21A G48A	1
U21C A60U	0.391
U21C A60G	0.663
U21A G28A	0.219
U21A G28C	0.193
U21G G25C	0.185
U21G G25U	0.187
U21C G68A	1
U21A U46A	1.03
U21A U46C	0.926
U21A U46G	0.934
U21G C33A	0.163
U21G C33U	0.575
U21G C33G	0.215
U21G C35A	0.13
U20G G25U	0.185
U20G G25A	0.129

Variant	self-cleavage
U21A U55C	0.874
U21G A23U	0.483
U21G A23C	0.379
U20G U49G	0.27
U20G U49A	0.26
U20G U49C	0.173
U21A G68U	0.976
U21A G68C	1.02
U20G U43C	0.182
U20G U43A	0.0656
U21A U61A	0.907
U21A U61G	0.94
U21C U43G	0.682
U21C U43A	0.771
U21G A42U	0.503
U21G A42C	0.303
U21G C57U	0.253
U21G C57A	0.22
U21A G56C	0.755
U21A G56U	0.936
U21A G56A	0.954
U21C G28U	0.105
U21C G28C	0.0853
U21A U67C	0.951

Variant	self-cleavage
U21A U67A	0.992
U20G U38A	0.288
U20G U38C	0.185
U20G U21A	0.252
U20G U21G	0.148
U21C G47A	0.915
U21C G47C	0.915
U21C G47U	0.978
U21G C27G	0.227
U21G A52U	0.608
U21G A52G	0.615
U20G U26C	0.114
U21C A42G	0.749
U21C A42U	0.891
U21C U62G	0.614
U21C U62C	0.516
U20G U53C	0.222
U20G U53A	0.127
U20G U53G	0.166
U21A U62A	0.853
U21A U62G	0.798
U21C U55C	0.611
U20G G65A	0.155
U20G G65U	0.262

Variant	self-cleavage
U21A C27A	0.447
U21A C27U	0.162
U20G C57U	0.143
U21G G31A	0.175
U21G G31U	0.24
U21C U69C	1.05
U21C U64C	0.609
U21C U64G	0.75
U21C U38G	0.432
U21C U38A	0.171
U21C U38C	0.808
U21A G30U	0.343
U21A G30C	0.532
U20G G37A	0.173
U20G G37C	0.151
U20G U61C	0.19
U20G U61G	0.171
U21C U61G	0.7
U21C U61C	0.572
U21C A52C	0.854
U21C G25C	0.118
U21C G25A	0.121
U21C G25U	0.13
U20G G47A	0.247

Variant	self-cleavage
U20G G47U	0.226
U20G G47C	0.189
U20G G31C	0.134
U20G G31A	0.155
U21A C45A	1.01
U21A C45G	0.956
U21A C45U	0.967
U21C A51U	0.861
U21C A51C	0.913
U21C U67A	0.921
U21C U67C	0.898
U20G U36A	0.13
U20G U36C	0.0978
U21C G56U	0.693
U21C G56A	0.657
U21A C34A	0.708
U21A C34U	0.995
U21A G65C	0.6
U21C C32G	0.226
U21C C32U	0.918
U21C C32A	0.741
U21A C33G	0.536
U21A C33U	1
U21A C33A	0.808

Variant	self-cleavage
U21A G41A	0.855
U21A G41U	0.824
U21A G41C	0.694
U21A G25C	0.249
U21A G25A	0.244
U21A G25U	0.136
U20G C45A	0.221
U20G C45G	0.11
U20G C45U	0.202
U21C U36G	0.286
U21C U36C	0.479
U21C U36A	0.0993
U21A	0.979
U21G	0.644
U21C	0.92
U21A C57G	0.361
U21A C57U	0.447
U21A C57A	0.268
U21C C27A	0.344
U21C C27U	0.138
U21A C66A	0.781
U21A C66G	0.835

— the RNAGym collection of RNA variant scans (doi:10.7554/elife.80360)
